38 variants from the RNAGym collection of RNA variant scans (doi:10.7554/elife.80360) can be followed below.

B1: Hairpin Ribozyme (parent)
chain: GUCCUCUUUCACGUGCGCGUGAAAGAGAGAAGUGAACCAGAGAAACACACGUUGUGGUAUAUUACCUGGUA

This series covers variants of B1. Nature of the series: self-cleavage, relative activity (ratio to wild type); higher = more cleavage; co-transcriptional.
For the variant GUCCUCUUUCACGUGCGGGUGAAAGAGAGAAGUGAACCAGAGAAACACGCGUUGUGGUAUAUUACCUGGUA [C18G A49G], the self-cleavage amounted to 0.344.
Take GUCCUCUUUCACGUGCGGGUGAAAGAGAGAAGUGAACCAGAGAAACACACGUUGUUGUAUAUUACCUGGUA [C18G G56U]: the self-cleavage worked out at 0.2.
In the case of GUCCUCUUUCACGUGCGAGUGAAAGAGAGAAGUGAACCAGAGAAACACACGUUGGGGUAUAUUACCUGGUA [C18A U55G], the self-cleavage amounted to 0.296.
With GUCCUCUUUCACGUGCGAGUGAAAGAGAGAAGUGAACCAGAGAAACACACGUUGAGGUAUAUUACCUGGUA [C18A U55A], the self-cleavage was 0.364.
In the case of GUCCUCUUUCACGUGCGGGUGACAGAGAGAAGUGAACCAGAGAAACACACGUUGUGGUAUAUUACCUGGUA [C18G A23C] it was 0.746.
Turning to GUCCUCUUUCACGUGCGGGUGAAAGAGACAAGUGAACCAGAGAAACACACGUUGUGGUAUAUUACCUGGUA [C18G G29C], the self-cleavage came to 0.133.
Regarding GUCCUCUUUCACGUGCGUGUGUAAGAGAGAAGUGAACCAGAGAAACACACGUUGUGGUAUAUUACCUGGUA [C18U A22U], the self-cleavage turned out to be 1.1.
As to GUCCUCUUUCACGUGCGUGUGCAAGAGAGAAGUGAACCAGAGAAACACACGUUGUGGUAUAUUACCUGGUA [C18U A22C], the self-cleavage turned out to be 0.949.
As to GUCCUCUUUCACGUGCGUGUGGAAGAGAGAAGUGAACCAGAGAAACACACGUUGUGGUAUAUUACCUGGUA [C18U A22G], the self-cleavage stood at 0.784.
On to GUCCUCUUUCACGUGCGGGUGAAAGAGAGAAGUGAACCUGAGAAACACACGUUGUGGUAUAUUACCUGGUA [C18G A39U], for which the self-cleavage amounted to 0.474.
Take GUCCUCUUUCACGUGCGGGUGAAAGAGAGAAGUGAACCCGAGAAACACACGUUGUGGUAUAUUACCUGGUA [C18G A39C]: the self-cleavage worked out at 0.587.
The figure for GUCCUCUUUCACGUGCGGGUGAAAGAGAGAAGUGAACCGGAGAAACACACGUUGUGGUAUAUUACCUGGUA [C18G A39G] is 0.281; for GUCCUCUUUCACGUGCGGGUUAAAGAGAGAAGUGAACCAGAGAAACACACGUUGUGGUAUAUUACCUGGUA [C18G G21U] it is 0.651.
GUCCUCUUUCACGUGCGGGUCAAAGAGAGAAGUGAACCAGAGAAACACACGUUGUGGUAUAUUACCUGGUA [C18G G21C]: the self-cleavage was determined as 0.706.
Consider GUCCUCUUUCACGUGCGGGUGAAAGAAAGAAGUGAACCAGAGAAACACACGUUGUGGUAUAUUACCUGGUA [C18G G27A], for which the self-cleavage was 0.407.
The figure for GUCCUCUUUCACGUGCGUGUGAUAGAGAGAAGUGAACCAGAGAAACACACGUUGUGGUAUAUUACCUGGUA [C18U A23U] is 0.997; for GUCCUCUUUCACGUGCGUGUGACAGAGAGAAGUGAACCAGAGAAACACACGUUGUGGUAUAUUACCUGGUA [C18U A23C] it is 0.898.
In the case of GUCCUCUUUCACGUGCGGGUGAAAGAGAGAAGUGAACCAGAGAAACACACGUUGUGGUAUAUUACCUCGUA [C18G G68C], the self-cleavage came to 0.266.
For GUCCUCUUUCACGUGCGGAUGAAAGAGAGAAGUGAACCAGAGAAACACACGUUGUGGUAUAUUACCUGGUA [C18G G19A], the self-cleavage came to 0.907.
For the variant GUCCUCUUUCACGUGCGGUUGAAAGAGAGAAGUGAACCAGAGAAACACACGUUGUGGUAUAUUACCUGGUA [C18G G19U], the self-cleavage came to 0.88.
GUCCUCUUUCACGUGCGGGUGAAAGAGAGAACUGAACCAGAGAAACACACGUUGUGGUAUAUUACCUGGUA [C18G G32C]: the self-cleavage amounted to 0.0857.
As for GUCCUCUUUCACGUGCGGGUGAAAUAGAGAAGUGAACCAGAGAAACACACGUUGUGGUAUAUUACCUGGUA [C18G G25U], the self-cleavage is 0.47.
GUCCUCUUUCACGUGCGGGUGAAACAGAGAAGUGAACCAGAGAAACACACGUUGUGGUAUAUUACCUGGUA [C18G G25C]: the self-cleavage turned out to be 0.454.
Consider GUCCUCUUUCACGUGCGGGUGAAAGAGAGAAGUGAACCAGAGAAACACACGUUGAGGUAUAUUACCUGGUA [C18G U55A], for which the self-cleavage is 0.145.
Regarding GUCCUCUUUCACGUGCGGGUGAAAGAGAGAAGUGAACCAGAGAAACACACGUUGCGGUAUAUUACCUGGUA [C18G U55C], the self-cleavage amounted to 0.233.
The figure for GUCCUCUUUCACGUGCGGGUGAAAGAGAGAAGUGAACUAGAGAAACACACGUUGUGGUAUAUUACCUGGUA [C18G C38U] is 0.44; for GUCCUCUUUCACGUGCGGGUGAAAGAGAGAAGUGAACCACAGAAACACACGUUGUGGUAUAUUACCUGGUA [C18G G40C] it is 0.0865; for GUCCUCUUUCACGUGCGGGUGAAAGAGAGAAGUGAACCAUAGAAACACACGUUGUGGUAUAUUACCUGGUA [C18G G40U] it is 0.187.
Take GUCCUCUUUCACGUGCGGGUGAAAGGGAGAAGUGAACCAGAGAAACACACGUUGUGGUAUAUUACCUGGUA [C18G A26G]: the self-cleavage is 0.828.
Take GUCCUCUUUCACGUGCGUGUGAAAGAGAGAAGUGUACCAGAGAAACACACGUUGUGGUAUAUUACCUGGUA [C18U A35U]: the self-cleavage is 0.802.
GUCCUCUUUCACGUGCGGGUGAAAGAGAGUAGUGAACCAGAGAAACACACGUUGUGGUAUAUUACCUGGUA [C18G A30U]: the self-cleavage was found to be 0.0888.
The figure for GUCCUCUUUCACGUGCGGGUGAAAGAGAGCAGUGAACCAGAGAAACACACGUUGUGGUAUAUUACCUGGUA [C18G A30C] is 0.275.
Turning to GUCCUCUUUCACGUGCGGGUGAAAGAGAGAAGUGAACCAGAGAAACACACGUUGUGGUAUAUGACCUGGUA [C18G U63G], the self-cleavage was determined as 0.27.
The figure for GUCCUCUUUCACGUGCGGGUGAAAGAGAGAAGUGAACCAGAGAAACACACGUUGUGGUAUAUCACCUGGUA [C18G U63C] is 0.276.
For GUCCUCUUUCACGUGCGGGUGAAAGAGAGAAGUGAACCAGAGAAAUACACGUUGUGGUAUAUUACCUGGUA [C18G C46U], the self-cleavage worked out at 0.0966.
In the case of GUCCUCUUUCACGUGCGGGUGAAAGAGAGAAGUGAACCAGAGAGACACACGUUGUGGUAUAUUACCUGGUA [C18G A44G], the self-cleavage was determined as 0.113.
On to GUCCUCUUUCACGUGCGAGUGAAAGAGAGAAGUGAACCAGAGAAACACACGUUGUGGUAUAUGACCUGGUA [C18A U63G], for which the self-cleavage came out at 0.204.
For GUCCUCUUUCACGUGCGAGUGAAAGAGAGAAGUGAACCAGAGAAACACACGUUGUGGUAUAUAACCUGGUA [C18A U63A], the self-cleavage was 0.13.
